Our source for the Kd values is article PMC2972214 (2010).

Holding throughout (assay): SPR
For assay [1], the target named is recombinant α-enolase of Streptococcus salivarius SV41 (IPM …) (Streptococcus salivarius, UniProt J7THK5 1-434).
Assay [2] deals with recombinant α-enolase of Streptococcus salivarius SV17 (IPM FYENG—VY) (Streptococcus salivarius, UniProt J7THK5 1-434).
Assay [3] addresses recombinant α-enolase of Streptococcus oralis SV11 (IPM …) (Streptococcus oralis, UniProt A0A1X1IR15 1-434).
The target in assay [4] is recombinant α-enolase of oral streptococcal strain SV90.

B1: human plasminogen (natural protein)
chain: EPLDDYVNTQGASLFSVTKKQLGAGSIEECAAKCEEDEEFTCRAFQYHSKEQQCVIMAENRKSSIIIRMRDVVLFEKKVYLSECKTGNGKNYRGTMSKTKNGITCQKWSSTSPHRPRFSPATHPSEGLEENYCRNPDNDPQGPWCYTTDPEKRYDYCDILECEEECMHCSGENYDGKISKTMSGLECQAWDSQSPHAHGYIPSKFPNKNLKKNYCRNPDRELRPWCFTTDPNKRWELCDIPRCTTPPPSSGPTYQCLKGTGENYRGNVAVTVSGHTCQHWSAQTPHTHNRTPENFPCKNLDENYCRNPDGKRAPWCHTTNSQVRWEYCKIPSCDSSPVSTEQLAPTAPPELTPVVQDCYHGDGQSYRGTSSTTTTGKKCQSWSSMTPHRHQKTPENYPNAGLTMNYCRNPDADKGPWCFTTDPSVRWEYCNLKKCSGTEASVVAPPPVVLLPDVETPSEEDCMFGNGKGYRGKRATTVTGTPCQDWAAQEPHRHSIFTPETNPRAGLEKNYCRNPDGDVGGPWCYTTNPRKLYDYCDVPQCAAPSFDCGKPQVEPKKCPGRVVGGCVAHPHSWPWQVSLRTRFGMHFCGGTLISPEWVLTAAHCLEKSPRPSSYKVILGAHQEVNLEPHVQEIEVSRLFLEPTRKDIALLKLSSPAVITDKVIPACLPSPNYVVADRTECFITGWGETQGTFGAGLLKEAQLPVIENKVCNRYEFLNGRVQSTELCAGHLAGGTDSCQGDSGGPLVCFEKDKYILQGVTSWGLGCARPNKPGVYVRVSRFVTWIEGVMRNN
As to B1, the Kd in assay [1] worked out at 300 nM; in assay [2], 500 nM; in assay [3], 1600 nM; in assay [4], 300 nM.

The term Kd denotes the free concentration of one partner at which half of the binding sites on the other are occupied at equilibrium, for simple one-to-one binding.
